In a protein production outcome set (Wang et al. 2014) one finds protein production data, which are given here for 20 sequences.

A short description of this series: label from the status in PepcDB records.
In the case of “MTNWLIAYQGEPGAYSEIAALRFGEPLPCESFDDVFSAVTEQKADYAVIPIENSLGGSIHQNYDLLLRRPVVILAETFVKVEHCLLGLPGASVETATKAMSHPQALVQCHNFFATHPQIRAEAAYDTAGSAKMVAESRDKSALAIASKRAGELYGLDILKENLADEEWNITRFFCIAHENNPDISHLKVRPDVARQKTSIVFALPNEQGSLFRALATFALRGIDLTKIESRPSRKKAFEYLFYADFIGHREDQNVHNALENLREFATMVKVLGSYGVVNP”, the protein production result is reported as “not failed”.
Consider “MKVAVLDFGKTNSKLFVFGQDGGILDERRTQPKWTHQDGFSVLDEAALHDWALGAVTEAVENHGVEGVMVSGHGCTFALVDDAALTHPILDYEQEPPAEIAARIDHRIPDFAETFSPRLPLGFNYGRHMLWVQEVDPDAFAAAKSILGYPQYWSWRLGGRPVSEVSYLGCHSHLWAPRSQDFSSLVDAEGWRGQMPAFARAGAVIGERRLGSSSRPIAIHNGVHDSNAALHAYRRQELGPLTVVSTGTWVVVLNPGCPLDVLDRDRDMLVNVDVDGGPVPTIRFMGGREFAAISAGWQGAIPPGAVQQAIDAGIMALPSFAPGGPMPDRPGRLVGRTPYAAERAAAALLYVALMVDLCLDLIQSQDTVIVDGGLNAGGLLAGLLAELRPGQAFLQGATLEGSATGAAALAFESVGRDFVAEAPEPVHAARFAGLAGYRDAWRDRVGGQGTAIKAAGGARLEHHHHHH”, for which the protein production result is listed as “failed”.
With “MEKVAFIGLGAMGYPMAGHLARRFPTLVWNRTFEKALRHQEEFGSEAVPLERVAEARVIFTCLPTTREVYEVAEALYPYLREGTYWVDATSGEPEASRRLAERLREKGVTYLDAPVSGGTSGAEAGTLTVMLGGPEEAVERVRPFLAYAKKVVHVGPVGAGHAVKAINNALLAVNLWAAGEGLLALVKQGVSAEKALEVINASSGRSNATENLIPQRVLTRAFPKTFALGLLVKDLGIAMGVLDGEKAPSPLLRLAREVYEMAKRELGPDADHVEALRLLERWGGVEIR”, the protein production entry is “not failed”.
With “MGKTKRYWLLKTEPNEWSWSDQESNGGISKWDGVKNKQAQKNLKSMTLGDLCFFYHSGTKSRCVVGVVEVSREWYTDDAEGVEGEGAVDVKAIGEMRKCVDLKEMKGDKGIITKGFVLFRQPRLSVVPVEEDVWNMICELGNGFCGDGKEDCESSDDE” the entry was “failed”; with “MSLSLYYKKIREQLGHELIFMPSVAAVIKNEQGELLFQYPGGEYWSLPAGAIEPGETPEEAVIREVWEETGLKVQVKKQKGVFGGKEFRYTYANGDKVEYIVVVFECEITSGKLKSIDGESLKLQYFSFSEKPPLALPYPDKIFLEGHHHHHH”, “not failed”.
With “MVMMEQCAWPYIRSVRVRVGERTRAGGEFDLMGTTTRRNASAMKMVGALLALYRQAAGHTQRSLGERFVIGEQQIASIEQGRRPLKPDLAEQLDELLGTKGALSTALSKMPEVDLVPLWAEEFLDREREAIAISSYENQVLPGLLQTEAYAWAVFRSRVPFYDEDTIARLAAARIERQGILQGKEPPITCFVVWEPVVRAPIGGRTVWREQLQRLRACSELPGLMLQVLPQDRTSHAGLNGPFVLLETPEHQRLAYTENQRGSQLIADADEVAILTQKCAMLRSQALTPEDTRDLLDRLLGEQ” the entry was “failed”.
Turning to “MSAPHDSHTLINVLTLNAHMGFDLLKRRFILAALREAIREVCAEIVCLQEVLGEHALHARRHAQWPAVAHYEYLAEMLWPQFSYGRNAVYPHGHHGNAVLSKFPISSFANHDVSVPGHEPRGVLHAVLQVPGWSEELQVFCVHLGLHEAHRQQQIGLLCARVAALSADAPVVVAGDFNDWRARGHPLLTRCGLVEAVECMHGRVARSFPSRFPVLPLDRIYLRNLRVVQARVLSGLPWSRLSDHLPLLASIAP”, the protein production entry was “failed”.
With “MSKISDNHDHSALQFMKKKVRENGSRDIRQIYVPAYTQVPLPNNMKKQIFFWLGALIFFILFMLVFGSILLPFVAGIVLAYFLNPIVQLLEKFRIRRVFGTILITLFIVVVFVAALIILIPIISWQIQQFMNDGLPVYINRIQTFFVEHDFDWVRRYFGSDPNELQSNIKGLLGQSSDFITSLLNSLLKSGKSLVNIVSLFVVAPVVAFYMLLDWPRMVTAVDSLIPRDHLETVRSIFHEMDRAIAGFVRGQGTACLILGGYYAIGLTITELNFGLLIGMFIGLISFVPYIGTMSGFLLSVGVAWVQFYPNNWGWIIVVMVIFLIGQFIEGYILQPKLVGSSVGLHPVWLMFALFAFSSLFGFTGMLIAVPAAAAVGVLVRFALHTYLNSQMYSRSGNSERLE” the entry was “failed”; with “MKSLKGIIYAMISSGTFGLIPLFTIPLMGNMEMNESNILFYRFLFSTLMMGAVCLLHKSTLKINMKHLISIIGLGALYALTALFLIYSYHYITSGVATTIHFLYPICVSFLMVVFFKEQKSKSLFLAASLSLIGVALMCWSGGGSIRLMGIGLAALTILTYGIYIVALNQLDIGKLPAEVLTFYVLLGGCVIFFIYSLFTAGISSIPSTKAGFYILALAFLSTVISDLTLILAVKYAGSTTTAILGSMEPLVAVVVGVLVFSEHFTLQSLIGLLLILMSVIIVILADQQKKSKRITEQKIIKPH”, “failed”; with “MSPRRSAAEAQATRGRILGRAAEIASEEGLDGITIGRLAEELEMSKSGVHKHFGTKETLQISTLDKAFVDFWHRVVEPALAEPPGLRRLRAVCANSVGYLEEPLLPGGCLLTAALSEYDGRPGRVRDAVAEVWSRWREQLRADLTAAVDKGELPAGFDVEQALFEIVAAGLALNAAMQLQHDRTAADRARRAIERALAQS”, “not failed”.
On to “YCVRGEKLVLFVTGVCPRNCFYCPLSPWRRKDVAYANERPIRKIEDIIEEAKIQEARGAGVTGGDPLARLNRTVEYIRTLKEEFGKKFHIHLYTTGILADKRALSMLYDAGL”, for which the protein production result was “failed”.
With “MPCTAKVLELRPSVDALLRQHVRTLQGTGRGQCSKSFVPAIRQELVMIALFQGLGLLLQDNALHRLPFDEQVAHWRDKTDAQLDEELSLLKVAKKQWVIASIIGWQAISLILLGVITHQLWQNDYHLTFSRVVIIFTSWASILFVMWYIADLFDHSAGFERWLRAFNSRARVTPDADSVECVADALDMTRRYPEVLRYKQEVTSKRELRHEDIVNMREMGRLRRYTELLRDLDRFDGAPRLVANA” the entry was “failed”.
Consider “MRRRWYNNGGFQTLRMLEESSSEVTSSSALGLPPAMVMSPESLASPEYGGLELWGYDDGITYSMAQSLGTCTMEQQQPQPQQQPQQTQPLPSMPLPMPPTTPKSENESMSSGREELSPASSVNGCSTDGEARRQKKGPAPRQQEELCLVCGDRASGYHYNALTCEGCKGFFRRSVTKNAVYICKFGHACEMDMYMRRKCQECRLKKCLAVGMRPECVVPENQCAMKRKEKKAQREKDKLPVSTTTVDDHMPPIMQCDPPPPEAARIHEVVPRFLNEKLMEQNRLKNVPPLTANQKSLIARLVWYQEGYEQPSEEDLKRVTQTWQSDEDDEDSDMPFRQITEMTILTVQLIVEFAKGLPGFAKISQSDQITLLKACSSEVMMLRVARRYDAATDSVLFANNQAYTRDNYRKAGMAYVIEDLLHFCRCMYSMMMDNVHYALLTAIVIFSDRPGLEQPLLVEEIQRYYLNTLRVYILNQNSASPRCAVIFGKILGILTEIRTLGMQNSNMCISLKLKNRKLPPFLEEIWDVADVATTATPVAAEAPAPLAPAPPARPPATV”, for which the protein production result was “not failed”.
With “MDPSSVIWIFFVFLFFYPQVLFRYRLLQRYKFIKQFEAVRKTRAIVMIHRQEQLALFGIPLYKYITIEDSEEILRAIRMTPEDMPIDLILHTPGGLVLASEQIAIALKEHKAKTTVIIPHYAMSGGSLIALAADEIIIDKNAVMGPVDPQIGQYPAASIINAINTKYTDELDDETLILGDIARKAIVQVKEFVYDILKDKMGEEKAKYLSETLSTGKWTHDYPLTINKLKDLGIEVNTELPNIVYELFDLYRQPVNQRPSVQYVPVPYKRGTK” the entry was “failed”; with “MNLPMTMSLQTVSFEEFITTIAAALGCGLLVGLERERSKLKHEYKTFAGFRSFAISSLLGAICFLFGTAIGIVGALLIGAISIVSLKNQPNDPGVTTELAFIMTYFIGALCIWNISLAAGLAVIMTIILLAKQSMHGIASQWITESELRDGIFLLALLLIALPLVPNKPFWGPVLNPHVILKLLTLILFVQALAHIAKRLLSSKNALLLSSLASGFVSSTATIASLGLEVRSGRANAKTNAGAALMSCVSTLVQTLIIVVGISLAWFKLIIFPTLIALAFLAVWAFILLRKAEPSTTSPELDSRMFSLKEAVIIAGTLTLIQAGVYGLSLYLGNAGLIAGTLLASLFEIHAAIAAVIVQGEPNNSQTSLLIAFMGGFAVHAIAKSINSAISGGLHYALAFIPAQILHMTIFIGLLWMNIHWF”, “failed”.
For “MGSKTSPKWISAILRWPLLWHAARLALVSAYILGGFTKLLDLAGAAAEQEHFGLYPGWLWASAAILVELFGSLLVVINRWVWLGAGGLGILTFVAMLTANAFWTMGGHERFMATNAFFEHLGLIAGLVIVTILSEEAVTRPKSGAGSQAIQGVSR”, the protein production entry is “failed”.
Consider “MSAPQAPSAPHSPPDVPVMQVIFGLMLAIMLGALEQSIVAVVLPEIALQLNGFEDMAWVISAYLVASTVVTPIYGKLSDVLGRRSVLTFSIVLFVLASIACAMATTMPMLIVARILQGLGGGGLISVSQATIADVVPLRERGKYQGYVSGVWAVASMAGPVIGGYLAHFLSWRWIFWINIPLGLIALIVVRRALRHLPVSGRKHRIDYLGALLFGGGLSGVLVFLTRMGQGHSPLEPQTIGLLAAGLIGLVLFIWQERRAVDPVIPLKMLAVPTVAICCLTLFLCFFQLIAMSVLLPLRFQVVGGAGADTAALRLVPLTLAIPFGAYASGRLMSWSGRYKPLQLAGCLVAPIAIVGLAFVPPQAVVPAALVMIVLGLSIGLQLPSGLVATQNSVPPQQVGIATALTAFSRLLGGAVGVAVLTTVLIALLRHSGMAVSDLHGGEDVLMSMFRRAMDAGDQGDAAAVREAAEHAFRLLFLMSAGVSLIAPFFVMRLKEKTLRGSPAGAAASAAAE”, for which the protein production entry was “failed”.
With “MDSLIPFDYATLRVLWWLLLGALLIGFAVMDGFDLGVAALLPLVAKTDVERRVVLNVVGPVWEGNQVWLITAGGAIFAAWPLLYAASFSGFYLAMMLVLIALILRPVGFKYRSKMEGTRWRSRWDAVLCFCGVVAALVFGVAMGNIILGVPFGFDAATLRPEYEGHFYQLFKPFALLAGLVSVAMMVMHGGVLLAWRTHDPVSSRARNWGRLAALVTAALFVAGGFWVAYGLDGHVITSAVDMHAPSNPMLKTVELQAGGWMANYEKWPLTWIAPALGVGGALLAFVLLSARANVLAFLASSVSIAGIILTVGFALFPFIMPSSSRPGAGLTVWDGSSSLLTLWIMLLAVAFFLPIITVYTAWVYRVMRGKVTEDSVDGTPNSY” the entry was “failed”; with “MIDWPLAELLPHAGDMILIDQVLAFDEEQIRTRLEVRPGGLFNRPDGSLPAWVGVELMAQSVAAYAGCRARQQGLPVELGFLLGTRKFECNVEHFPLGSTLEIHALRSLEDDNGMGVFECHLSGPGITASARLNVFRPLEHHHHHH”, “failed”.
As to “MTGADHAHTRRRPLTGPLVKSLVFVVVTALATTVLGLSVAGTSVDSGTGTSTYKALFTDVTGLVDGDSVRISGVTVGEVTDVRVVDRRTAQVTFTVRDDRTLPRSTTAAVKYLNMVGQRYVSLGRGSGDLAGTLPEGGTVPLDRTTPALDLTLLFNGFKPLFEGLSPKDVNDLAGSIVQVLQGEGATVDSLIRHVGSLGTTVAAKDKVIGEVVENLTTVLDTLNDREDGFDDLVVTLQKLVTGFNQDRKPLGEAVAAMGDLTTVTAGLLEDGRAPLKKDVQELGRLSAGLGEHTPQIEDFLEKSPAKMTALARLSSYGSWFNLYLCEARVSGVSTSDGSKPPTGIAITESRCRGLEHHHHHH”, the protein production entry is reported as “failed”.
